Assay results reported in patent publication US20230190867A1 (BIOINCEPT, published 2023).
No end group written: not given here.

Key:
[1] = target: T1, 14-3-3 protein beta/alpha (human, UniProt P31946 1-246); test: PIF-agarose affinity extraction, liver lysate column of Table 4
T1 sequence (looked up): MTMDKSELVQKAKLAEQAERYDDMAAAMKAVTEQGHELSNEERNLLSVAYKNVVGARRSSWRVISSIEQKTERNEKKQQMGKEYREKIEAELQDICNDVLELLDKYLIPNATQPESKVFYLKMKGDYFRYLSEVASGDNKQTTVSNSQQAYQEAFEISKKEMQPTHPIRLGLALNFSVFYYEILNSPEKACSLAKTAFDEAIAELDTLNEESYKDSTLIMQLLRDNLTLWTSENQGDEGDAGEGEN

14-3-3 protein eta = target: T2, 14-3-3 protein eta (human, UniProt Q04917 2-246); test: as above
T2 sequence (looked up): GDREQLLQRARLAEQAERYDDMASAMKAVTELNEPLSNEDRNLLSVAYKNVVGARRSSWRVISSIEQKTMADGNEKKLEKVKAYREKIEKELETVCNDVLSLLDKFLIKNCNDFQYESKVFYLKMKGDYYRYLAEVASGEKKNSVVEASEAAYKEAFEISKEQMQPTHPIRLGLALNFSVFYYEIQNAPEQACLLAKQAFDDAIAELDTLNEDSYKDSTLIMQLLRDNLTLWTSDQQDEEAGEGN

14-3-3 protein gamma = target: T3, 14-3-3 protein gamma (human, UniProt P61981 1-247); test: as above
T3 sequence (looked up): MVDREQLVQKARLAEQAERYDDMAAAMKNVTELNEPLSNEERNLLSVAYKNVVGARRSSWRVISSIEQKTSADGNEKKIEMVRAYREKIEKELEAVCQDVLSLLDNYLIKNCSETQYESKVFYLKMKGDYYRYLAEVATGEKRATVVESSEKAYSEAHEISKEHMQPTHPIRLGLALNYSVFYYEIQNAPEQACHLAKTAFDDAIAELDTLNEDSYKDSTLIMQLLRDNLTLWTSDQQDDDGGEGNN

[2] = target: 40S ribosomal protein S3a (human, UniProt P61247 2-264); test: as above
Alpha-actinin-1 = Alpha-actinin-1 (human, UniProt P12814 1-892); test: as above
Cofilin-1 = Cofilin-1 (human, UniProt P23528 2-166); test: as above
[3] = target: Eukaryotic initiation factor 4A-I (human, UniProt P60842 2-406); test: as above
[4] = target: Isoform 2 of Heat shock protein HSP 90-alpha (human, UniProt P07900-2 1-854, limits assumed); test: as above
Isoform C of Lamin-A/C = target: T4, Isoform C of Lamin-A/C (human, UniProt P02545-2 1-572); test: as above
T4 sequence (looked up): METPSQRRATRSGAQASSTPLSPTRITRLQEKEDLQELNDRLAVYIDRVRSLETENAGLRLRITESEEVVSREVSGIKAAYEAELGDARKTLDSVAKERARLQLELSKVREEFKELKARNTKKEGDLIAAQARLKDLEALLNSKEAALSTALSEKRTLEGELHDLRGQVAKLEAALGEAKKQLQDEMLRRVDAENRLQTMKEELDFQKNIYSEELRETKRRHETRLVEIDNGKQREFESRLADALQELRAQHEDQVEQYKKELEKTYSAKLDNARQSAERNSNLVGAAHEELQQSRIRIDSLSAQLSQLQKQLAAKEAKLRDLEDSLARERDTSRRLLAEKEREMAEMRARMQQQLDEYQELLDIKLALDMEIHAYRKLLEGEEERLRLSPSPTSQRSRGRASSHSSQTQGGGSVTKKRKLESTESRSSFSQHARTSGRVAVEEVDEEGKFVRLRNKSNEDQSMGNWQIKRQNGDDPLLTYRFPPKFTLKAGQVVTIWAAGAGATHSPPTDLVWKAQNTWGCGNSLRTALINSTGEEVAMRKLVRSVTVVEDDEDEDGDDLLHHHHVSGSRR

[5] = target: Serine/arginine-rich-splicing factor 1 (human, UniProt Q07955 2-248); test: as above
[6] = target: T5, Serine/arginine-rich-splicing factor 2 (human, UniProt Q01130 2-221); test: as above
T5 sequence (looked up): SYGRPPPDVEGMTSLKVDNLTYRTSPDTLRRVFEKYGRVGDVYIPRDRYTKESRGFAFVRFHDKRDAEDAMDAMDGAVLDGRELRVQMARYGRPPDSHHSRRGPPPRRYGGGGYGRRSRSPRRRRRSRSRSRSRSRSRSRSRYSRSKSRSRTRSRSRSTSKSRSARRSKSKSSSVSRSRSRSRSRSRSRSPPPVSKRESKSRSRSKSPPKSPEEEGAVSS

[7] = target: T6, Elongation factor 1-alpha 1 (human, UniProt P68104 2-462); test: PIF-agarose affinity extraction, liver lysate column of Table 4 (row 'Eef1a1')
T6 construct: also called Eef1a1
T6 sequence (looked up): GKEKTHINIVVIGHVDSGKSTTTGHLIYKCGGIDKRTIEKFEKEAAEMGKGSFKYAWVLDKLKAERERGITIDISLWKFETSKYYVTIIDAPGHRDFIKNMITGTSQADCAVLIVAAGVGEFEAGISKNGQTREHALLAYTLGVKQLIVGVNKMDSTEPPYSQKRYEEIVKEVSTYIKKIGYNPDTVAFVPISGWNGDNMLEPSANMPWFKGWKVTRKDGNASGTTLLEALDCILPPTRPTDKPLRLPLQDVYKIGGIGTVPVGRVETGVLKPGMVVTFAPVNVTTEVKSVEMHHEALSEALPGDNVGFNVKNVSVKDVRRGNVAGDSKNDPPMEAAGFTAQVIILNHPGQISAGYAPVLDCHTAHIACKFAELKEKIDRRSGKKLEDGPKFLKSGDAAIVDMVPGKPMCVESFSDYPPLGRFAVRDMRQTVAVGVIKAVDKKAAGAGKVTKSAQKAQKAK

Measured: binding result

Sequence of Alpha-actinin-1 (P12814 whole entry): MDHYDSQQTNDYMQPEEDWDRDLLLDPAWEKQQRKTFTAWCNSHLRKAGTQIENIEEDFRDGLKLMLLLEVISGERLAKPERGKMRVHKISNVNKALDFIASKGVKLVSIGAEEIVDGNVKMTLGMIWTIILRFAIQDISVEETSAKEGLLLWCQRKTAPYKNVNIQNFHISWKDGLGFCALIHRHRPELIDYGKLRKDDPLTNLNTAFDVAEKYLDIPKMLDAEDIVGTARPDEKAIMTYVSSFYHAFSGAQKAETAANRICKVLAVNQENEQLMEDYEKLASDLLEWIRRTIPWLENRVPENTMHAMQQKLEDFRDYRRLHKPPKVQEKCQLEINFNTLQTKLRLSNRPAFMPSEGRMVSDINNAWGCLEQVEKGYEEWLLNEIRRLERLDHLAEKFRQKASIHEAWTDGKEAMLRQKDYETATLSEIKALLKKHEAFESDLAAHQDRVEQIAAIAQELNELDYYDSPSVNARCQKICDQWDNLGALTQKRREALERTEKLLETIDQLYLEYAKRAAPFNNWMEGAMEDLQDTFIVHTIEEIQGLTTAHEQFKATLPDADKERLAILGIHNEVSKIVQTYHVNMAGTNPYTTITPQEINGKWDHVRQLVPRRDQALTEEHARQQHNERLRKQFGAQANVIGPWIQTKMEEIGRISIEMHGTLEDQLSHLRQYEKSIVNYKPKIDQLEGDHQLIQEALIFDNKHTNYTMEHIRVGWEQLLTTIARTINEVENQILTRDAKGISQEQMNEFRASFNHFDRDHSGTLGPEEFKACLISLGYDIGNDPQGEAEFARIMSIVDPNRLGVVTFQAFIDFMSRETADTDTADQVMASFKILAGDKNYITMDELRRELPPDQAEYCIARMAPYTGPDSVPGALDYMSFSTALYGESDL
Sequence of Serine/arginine-rich-splicing factor 1 (Q07955 2-248 limits assumed): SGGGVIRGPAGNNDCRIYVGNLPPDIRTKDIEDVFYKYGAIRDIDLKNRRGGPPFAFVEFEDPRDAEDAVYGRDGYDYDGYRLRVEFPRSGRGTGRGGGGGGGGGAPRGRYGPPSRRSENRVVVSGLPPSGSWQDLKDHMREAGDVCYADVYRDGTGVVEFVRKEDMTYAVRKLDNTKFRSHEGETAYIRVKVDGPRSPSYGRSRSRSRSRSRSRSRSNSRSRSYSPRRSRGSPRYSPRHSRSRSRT
Sequence of Cofilin-1 (P23528 2-166 limits assumed): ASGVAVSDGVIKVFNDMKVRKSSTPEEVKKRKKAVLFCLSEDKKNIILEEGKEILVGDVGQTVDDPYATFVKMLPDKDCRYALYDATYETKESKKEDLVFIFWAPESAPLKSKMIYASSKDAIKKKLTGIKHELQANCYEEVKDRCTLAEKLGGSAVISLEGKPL
Sequence of Eukaryotic initiation factor 4A-I (P60842 2-406 limits assumed): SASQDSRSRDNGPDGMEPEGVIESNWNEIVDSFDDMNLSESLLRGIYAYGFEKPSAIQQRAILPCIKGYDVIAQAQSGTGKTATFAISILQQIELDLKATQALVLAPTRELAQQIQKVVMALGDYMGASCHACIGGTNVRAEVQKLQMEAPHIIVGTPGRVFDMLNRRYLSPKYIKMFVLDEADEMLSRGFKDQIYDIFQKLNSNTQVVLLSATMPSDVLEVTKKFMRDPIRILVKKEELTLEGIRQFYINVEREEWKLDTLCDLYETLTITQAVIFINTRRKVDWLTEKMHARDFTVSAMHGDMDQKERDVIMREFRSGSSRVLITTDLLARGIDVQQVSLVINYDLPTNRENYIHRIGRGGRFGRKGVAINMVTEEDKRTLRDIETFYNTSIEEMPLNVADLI

B1: sPIF-1(15) (peptide)
peptide: MVRIKPGSANKPSDD
modifications: also: coupled to agarose support
notes: also called synthetic preimplantation factor
binds: all assays above
